Measured values as given in patent US20050074865.

Target: recombinant human TNFα (RDI) (UniProt P01375)
Sequence (P01375 77-233): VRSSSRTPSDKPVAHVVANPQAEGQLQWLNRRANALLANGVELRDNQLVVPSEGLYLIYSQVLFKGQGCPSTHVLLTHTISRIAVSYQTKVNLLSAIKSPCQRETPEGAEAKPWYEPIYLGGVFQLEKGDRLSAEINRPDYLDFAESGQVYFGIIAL

Sequence of Enterokinase (P98072 2-800): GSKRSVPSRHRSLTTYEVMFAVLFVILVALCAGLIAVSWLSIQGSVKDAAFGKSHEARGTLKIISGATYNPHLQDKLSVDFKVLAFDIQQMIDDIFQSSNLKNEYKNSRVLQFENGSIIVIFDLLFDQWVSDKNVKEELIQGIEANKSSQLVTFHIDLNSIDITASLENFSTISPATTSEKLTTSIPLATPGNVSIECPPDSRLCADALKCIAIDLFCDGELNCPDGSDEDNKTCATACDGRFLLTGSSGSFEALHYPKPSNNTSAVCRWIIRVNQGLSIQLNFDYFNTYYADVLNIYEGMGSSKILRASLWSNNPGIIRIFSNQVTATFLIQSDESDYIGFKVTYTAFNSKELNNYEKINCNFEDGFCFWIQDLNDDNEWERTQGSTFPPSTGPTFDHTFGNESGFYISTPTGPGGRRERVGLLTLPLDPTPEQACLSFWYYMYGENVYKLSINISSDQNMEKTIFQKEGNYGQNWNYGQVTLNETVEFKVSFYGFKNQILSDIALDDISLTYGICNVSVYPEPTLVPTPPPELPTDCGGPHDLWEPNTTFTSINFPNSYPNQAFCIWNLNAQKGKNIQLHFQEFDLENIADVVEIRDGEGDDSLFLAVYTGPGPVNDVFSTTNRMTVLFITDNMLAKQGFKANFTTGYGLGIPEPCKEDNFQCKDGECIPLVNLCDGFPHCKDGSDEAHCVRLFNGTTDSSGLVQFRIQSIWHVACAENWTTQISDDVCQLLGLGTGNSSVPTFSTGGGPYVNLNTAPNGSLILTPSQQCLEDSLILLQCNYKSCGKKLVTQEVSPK
Sequence of Enterokinase (P98072 801-1035): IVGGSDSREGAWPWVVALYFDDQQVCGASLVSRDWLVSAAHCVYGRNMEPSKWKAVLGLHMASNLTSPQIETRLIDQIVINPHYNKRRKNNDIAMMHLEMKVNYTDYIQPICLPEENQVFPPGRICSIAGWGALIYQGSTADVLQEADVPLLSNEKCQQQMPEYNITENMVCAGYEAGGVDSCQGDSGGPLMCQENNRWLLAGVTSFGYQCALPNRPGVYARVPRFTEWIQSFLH

MMP3
inactivation of TNFα bioactivity, L929 cytotoxicity bioassay after overnight digestion: MMP3 (column: Proteases that did not inactivate TNF)

Enterokinase
inactivation of TNFα bioactivity, L929 cytotoxicity bioassay after overnight digestion: Enterokinase (column: Proteases that did not inactivate TNF) | proteolytic activity towards TNFα and effect in the L929 bioassay: enterokinase has no proteolytic activity towards TNFα and no effect in the L929 bioassay

ADAM 10
inactivation of TNFα bioactivity, L929 cytotoxicity bioassay after overnight digestion: ADAM 10 (column: Proteases that did not inactivate TNF)

MT5-MMP
inactivation of TNFα bioactivity, L929 cytotoxicity bioassay after overnight digestion: MT5-MMP (column: Proteases that did not inactivate TNF)

Kallikrein5
inactivation of TNFα bioactivity, L929 cytotoxicity bioassay after overnight digestion: Kallikrein5 (column: Proteases that did not inactivate TNF)

Urokinase
inactivation of TNFα bioactivity, L929 cytotoxicity bioassay after overnight digestion: Urokinase (column: Proteases that did not inactivate TNF)

Furin
inactivation of TNFα bioactivity, L929 cytotoxicity bioassay after overnight digestion: Furin (column: Proteases that did not inactivate TNF)

Plasmin
inactivation of TNFα bioactivity, L929 cytotoxicity bioassay after overnight digestion: Plasmin (column: Proteases that did not inactivate TNF)
